Measurements from patent publication US20230381229A1 (ALPINE IMMUNE SCIENCES, INC., published 2023).

B1: variant CD155 IgV-Fc P18S, A47G, L79P, F91S, L104M, T107A, R113W (Fc fusion)
chain: WPPPGTGDVVVQAPTQVSGFLGDSVTLPCYLQVPNMEVTHVSQLTWGRHGESGSMAVFHQTQGPSYSESKRLEFVAARPGAELRNASLRMSGLRVEDEGNYTCMFVAFPQGSWSVDIWLRVLGSGGGGSEPKSSDKTHTCPPCPAPEAEGAPSVFLFPPKPKDTLMISRTPEVTCVVVDVSHEDPEVKFNWYVDGVEVHNAKTKPREEQYNSTYRVVSVLTVLHQDWLNGKEYKCKVSNKALPAPIEKTISKAKGQPREPQVYTLPPSRDELTKNQVSLTCLVKGFYPSDIAVEWESNGQPENNYKTTPPVLDSDGSFFLYSKLTVDKSRWQQGNVFSCSVMHEALHNHYTQKSLSLSPGK
B2: variant CD155 IgV-Fc P18T, D23G, S24A, N35D, H49L, L79P, F91S, L104M, G111R (Fc fusion)
chain: WPPPGTGDVVVQAPTQVTGFLGGAVTLPCYLQVPDMEVTHVSQLTWARLGESGSMAVFHQTQGPSYSESKRLEFVAARPGAELRNASLRMSGLRVEDEGNYTCMFVTFPQRSRSVDIWLRVLGSGGGGSEPKSSDKTHTCPPCPAPEAEGAPSVFLFPPKPKDTLMISRTPEVTCVVVDVSHEDPEVKFNWYVDGVEVHNAKTKPREEQYNSTYRVVSVLTVLHQDWLNGKEYKCKVSNKALPAPIEKTISKAKGQPREPQVYTLPPSRDELTKNQVSLTCLVKGFYPSDIAVEWESNGQPENNYKTTPPVLDSDGSFFLYSKLTVDKSRWQQGNVFSCSVMHEALHNHYTQKSLSLSPGK
B3: variant CD155 IgV-Fc V11E, P18H, F20Y, V25E, N35S, H49R, L79P, F91S, T107M, G111R (Fc fusion)
chain: WPPPGTGDVVEQAPTQVHGYLGDSETLPCYLQVPSMEVTHVSQLTWARRGESGSMAVFHQTQGPSYSESKRLEFVAARPGAELRNASLRMSGLRVEDEGNYTCLFVMFPQRSRSVDIWLRVLGSGGGGSEPKSSDKTHTCPPCPAPEAEGAPSVFLFPPKPKDTLMISRTPEVTCVVVDVSHEDPEVKFNWYVDGVEVHNAKTKPREEQYNSTYRVVSVLTVLHQDWLNGKEYKCKVSNKALPAPIEKTISKAKGQPREPQVYTLPPSRDELTKNQVSLTCLVKGFYPSDIAVEWESNGQPENNYKTTPPVLDSDGSFFLYSKLTVDKSRWQQGNVFSCSVMHEALHNHYTQKSLSLSPGK
B4: variant CD155 IgV-Fc V9L, P18Y, V25A, V38G, M55V, A77T, L79P, M90I, F91S, L104M (Fc fusion)
chain: WPPPGTGDLVVQAPTQVYGFLGDSATLPCYLQVPNMEGTHVSQLTWARHGESGSVAVFHQTQGPSYSESKRLEFVATRPGAELRNASLRISGLRVEDEGNYTCMFVTFPQGSRSVDIWLRVLGSGGGGSEPKSSDKTHTCPPCPAPEAEGAPSVFLFPPKPKDTLMISRTPEVTCVVVDVSHEDPEVKFNWYVDGVEVHNAKTKPREEQYNSTYRVVSVLTVLHQDWLNGKEYKCKVSNKALPAPIEKTISKAKGQPREPQVYTLPPSRDELTKNQVSLTCLVKGFYPSDIAVEWESNGQPENNYKTTPPVLDSDGSFFLYSKLTVDKSRWQQGNVFSCSVMHEALHNHYTQKSLSLSPGK
B5: variant CD155 IgV-Fc P18T, S52A, V57A, Q60R, Q62K, S65C, L79P, F91T, N100Y, T107M (Fc fusion)
chain: WPPPGTGDVVVQAPTQVTGFLGDSVTLPCYLQVPNMEVTHVSQLTWARHGEAGSMAAFHRTKGPCYSESKRLEFVAARPGAELRNASLRMTGLRVEDEGYYTCLFVMFPQGSRSVDIWLRVLGSGGGGSEPKSSDKTHTCPPCPAPEAEGAPSVFLFPPKPKDTLMISRTPEVTCVVVDVSHEDPEVKFNWYVDGVEVHNAKTKPREEQYNSTYRVVSVLTVLHQDWLNGKEYKCKVSNKALPAPIEKTISKAKGQPREPQVYTLPPSRDELTKNQVSLTCLVKGFYPSDIAVEWESNGQPENNYKTTPPVLDSDGSFFLYSKLTVDKSRWQQGNVFSCSVMHEALHNHYTQKSLSLSPGK
B6: variant CD155 IgV-Fc V11A, P18T, N35S, L79P, S87T, F91S (Fc fusion)
chain: WPPPGTGDVVAQAPTQVTGFLGDSVTLPCYLQVPSMEVTHVSQLTWARHGESGSMAVFHQTQGPSYSESKRLEFVAARPGAELRNATLRMSGLRVEDEGNYTCLFVTFPQGSRSVDIWLRVLGSGGGGSEPKSSDKTHTCPPCPAPEAEGAPSVFLFPPKPKDTLMISRTPEVTCVVVDVSHEDPEVKFNWYVDGVEVHNAKTKPREEQYNSTYRVVSVLTVLHQDWLNGKEYKCKVSNKALPAPIEKTISKAKGQPREPQVYTLPPSRDELTKNQVSLTCLVKGFYPSDIAVEWESNGQPENNYKTTPPVLDSDGSFFLYSKLTVDKSRWQQGNVFSCSVMHEALHNHYTQKSLSLSPGK

Target: T1, TIGIT (human)
T1 chain: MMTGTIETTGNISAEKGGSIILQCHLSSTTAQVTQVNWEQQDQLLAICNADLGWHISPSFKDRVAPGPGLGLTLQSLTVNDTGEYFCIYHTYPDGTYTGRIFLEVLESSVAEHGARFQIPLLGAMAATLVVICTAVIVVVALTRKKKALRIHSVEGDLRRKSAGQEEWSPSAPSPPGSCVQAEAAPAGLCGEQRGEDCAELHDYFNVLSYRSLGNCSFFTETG
Test: cell-based or functional assay

In order of falling “IL-2 luciferase reporter, Normalized Fold Change from CD155-ECD, proteins at 50 nM” value:
1. B1  5 fold
2. B2  3.2 fold

Target: T1, TIGIT
Test: cell-based or functional assay
Remark: another data set of the same source

In order of falling “IL-2 luciferase reporter, Normalized Fold Change from CD155-ECD” value:
1. B5  2.1 fold
2. B6  2.1 fold
3. B4  1.2 fold
4. B3  -0.6 fold
